For this series, the system named is Huh7 cells. The series is described as follows: Luciferase expression from PB1-MinTK construct in Huh7 cells transfected with CAR plasmid, induction by TCPOBOP. The format is cell-based, human. An excerpt: • Huh7 cells which are a human liver cell line • DPBS: without CaCl2, without MgCl2 (Gibco, 14190-094) • DMEM (Sigma, D6546) • FBS (Sigma, F9665) • Pen-Strep (Sigma, P4333) • Promega Fugene-HD (E2311) • TCPOBOP (Sigma, T2320) • CITCO (Cayman Chemicals Company, 16027) • pcDNA6 plasmid which contains the β-galactosidase gene used as internal control for transfection efficiency (Thermofisher, V22020) • mouse CAR expression plasmid from Jouan et al, 2016 (BioCat GmbH, EX-Z4288-M51-10-GC). This was used as Huh7 is CAR deficient. • β-galactosidase substrate solution (Thermofisher, 75707/75710) • Pierce BCA kit (23225) • LARII (Dual Luciferase Reporter 1000 assay system, Promega, E1980) • EPO ELISA kit (Abcam, ab119522) Method: Day 1 • Cells were seeded onto a 48 well plate at a density of 25,000 cells/300 μl Day 2 • On the day of transfection, DNA to be transfected (CAR plasmid/PB1-MinTK operably linked with luciferase or EPO/pcDNA6 plasmid for internal control) was diluted to a 100 ng/μl stock solution. Per 48 Well Transfection: • 45 ng of DNA (15 ng of each plasmid, pcDNA6, CAR and test plasmid) was mixed with 4.1 μl of Optimem medium. • 0.5 μl of Fusion HD was mixed with 4 μl of Optimem medium. • These 2 solutions were mixed and incubated at room temperature for 15 minutes. • The final solution was then added to the well drop wise. • 3 hrs after transfection, the inducer TCPOBOP was added to the appropriate wells at the indicated concentration. Day 3 • 24 hrs after induction the media was removed from the cells. • The cells were washed once in 300 μl of DPBS • Cells were lysed using 100 μl of passive lysis buffer and incubation with rocking for 15 minutes • The cell debris was pelleted by centrifugation of the plate at max speed in a benchtop centrifuge for 1 min • For luciferase, 10 μl sample was transferred into white 96-well plate and luminescence measured by injection of 50 μl of LARII substrate. • β-galactosidase activity was measured as per manufacturer's instructions (Mammalian β-Galactosidase Assay Kit, 75707/75710, Thermo Scientific) using 25 μl of lysate. 25 μl of lysate was transferred into a microplate well and mixed with 25 μl of β-galactosidase Assay Reagent, equilibrated to room temperature. The mixture was incubated at 37° C. for 30 min and absorbance measured at 405 nm. • Protein concentration was measured as per manufacturer's instructions (Pierce™ BCA Protein Assay Kit, 23225/23227, Thermo Scientific) using 25 μl of lysate. 25 μl of lysate was transferred into a microplate well and mixed with 200 μl of working solution. The mixture was incubated at 37° C. for 30 min, cooled to room temperature and then absorbance measured around 562 nm. The protein concentration was calculated with respect to protein standard curve prepared from assaying standards with known protein concentration.
Luciferase readouts were normalised to both β-galactosidase and protein concentration in the lysate to produce normalised relative luminometer units (RLUs).
To compare across experiments the strength of the promoters was compared to CMV-IE promoter which was driving the same gene as the PBREM-containing constructs, which is included in every experiment.
The PB1-MinTK construct was cloned into the vector pGL4.10 using the KpnI and NcoI restriction sites. This places the promoters directly upstream of the firefly luciferase reporter gene. The PB1-MinTK construct contains the 51 bp enhancer and the MinTK minimal promoter from Herpes Thymidine kinase gene.

B1: PB1-MinTK: promoter: single mouse PBREM element and MinTK minimal promoter, SEQ ID NO: 7 (nucleic acid)
DNA: TCTGTACTTTCCTGACCTTGGCACAGTGCCACCATCAACTTGCCTGACACCGATCCGGCCCCGCCCAGCGTCTTGTCATTGGCGAATTCGAACACGCAGATGCAGTCGGGGCGGCGCGGTCCGAGGTCCACTTCGCATATTAAGGTGACGCGTGTGGCCTCGAACACCGAGCGACCCTGCAGCGACCCGCTTAACAGCGTCAACAGCGTGCCGCAGATCTCGAGGAGCTTGGCGAGATTTTCAGGAGCTAAGGAAGCTAAAC
modifications: PB1-MinTK
Turning to B1, the “induction of the promoter (luciferase)” value (50 nM or 150 nM TCPOBOP, 24 hrs after induction) was “up to 6 fold”. Further, the “response of the promoter (luciferase)” value (250 nM TCPOBOP) is listed as “did not illicit a response”. The “luciferase expression as ratio of CMV-IE promoter” value (TCPOBOP induced, one PBREM element with MinTK) worked out at 40%. Besides, the “luciferase activity from the promoter (leaky expression)” value (cells treated with vehicle (DMSO)) is “very little measurable luciferase activity”. The luciferase activity result (no CAR transfected, 150 nM TCPOBOP) was “no measurable activity”. Further, the luciferase expression entry (presence of CAR and 150 nM TCPOBOP) was “high”.

The record behind these values is patent US12472269B2, “Liver-specific inducible promoters and methods of use thereof” (ASKBIO INC., priority 2019, dated 2025).
